Results published in article PMC7052140.

What was measured:
[1] = molecular target: Cyt1Aa E32Q activated toxin (Bacillus thuringiensis subsp. israelensis)
[2] = molecular target: Cyt1Aa E45Q activated toxin (Bacillus thuringiensis subsp. israelensis)
[3] = molecular target: Cyt1Aa Q168E activated toxin (Bacillus thuringiensis subsp. israelensis)
[4] = molecular target: Cyt1Aa activated toxin, wild type (Bacillus thuringiensis subsp. israelensis) (UniProt P0A382); assay: atomic force microscopy on supported lipid bilayers

“Cyt1Aa E32Q activated toxin (domain or fragment)” showed a fold reduction of cytotoxicity on HEK293 cells against the WT toxin [1] of 2.4 fold.

“Cyt1Aa E45Q activated toxin (domain or fragment)” showed a fold reduction of cytotoxicity on HEK293 cells against the WT toxin [2] of 14 fold.

“Cyt1Aa Q168E activated toxin (domain or fragment)” gave a cytotoxicity on HEK293 cells (LC50) [3] greater than 30 µM.

With “Cyt1Aa activated toxin, wild type (from UniProt P0A382 1-249) (domain or fragment)” the stoichiometry N [4] was 56.
